Reference: ChEMBL document CHEMBL1140019, “Primary amides as selective inhibitors of cathepsin K” (Bioorg Med Chem Lett, 2007)

Assays:
Details in all cases: Homo sapiens
[1] = substrate: CC(C)C[C@H](N[C@@H](c1ccc(-c2ccc(S(C)(=O)=O)cc2)cc1)C(F)(F)F)C(=O)NCC(N)=O; experiment: (§1) Activity of humanized rabbit cathepsin K at 25 uM
[2] = substrate: CC(C)C[C@H](N[C@@H](c1ccc(-c2ccc(S(C)(=O)=O)cc2)cc1)C(F)(F)F)C(=O)N[C@@H](C)C(N)=O; experiment: as §1
[3] = substrate: CSCC[C@H](NC(=O)[C@H](CC(C)C)N[C@@H](c1ccc(-c2ccc(S(C)(=O)=O)cc2)cc1)C(F)(F)F)C(N)=O; experiment: as §1
[4] = substrate: Cc1cc(=O)oc2cc(NC(=O)[C@H](CCCN=C(N)N)NC(=O)[C@H](CC(C)C)NC(=O)OCc3ccccc3)ccc12; experiment: as §1
[5] = substrate: CC(C)C[C@H](N[C@@H](c1ccc(-c2ccc(S(C)(=O)=O)cc2)cc1)C(F)(F)F)C(=O)NCC(N)=O; experiment: (§2) Ratio of Kcat to Km for humanized rabbit cathepsin K; parameters: unit not given here
[6] = substrate: CC(C)C[C@H](N[C@@H](c1ccc(-c2ccc(S(C)(=O)=O)cc2)cc1)C(F)(F)F)C(=O)N[C@@H](C)C(N)=O; experiment: as §2; parameters: unit not given here
[7] = substrate: CSCC[C@H](NC(=O)[C@H](CC(C)C)N[C@@H](c1ccc(-c2ccc(S(C)(=O)=O)cc2)cc1)C(F)(F)F)C(N)=O; experiment: as §2; parameters: unit not given here
[8] = substrate: Cc1cc(=O)oc2cc(NC(=O)[C@H](CCCN=C(N)N)NC(=O)[C@H](CC(C)C)NC(=O)OCc3ccccc3)ccc12; experiment: as §2; parameters: unit not given here

B1: Cathepsin K (Homo sapiens), P43235 (protein)
chain: MWGLKVLLLPVVSFALYPEEILDTHWELWKKTHRKQYNNKVDEISRRLIWEKNLKYISIHNLEASLGVHTYELAMNHLGDMTSEEVVQKMTGLKVPLSHSRSNDTLYIPEWEGRAPDSVDYRKKGYVTPVKNQGQCGSCWAFSSVGALEGQLKKKTGKLLNLSPQNLVDCVSENDGCGGGYMTNAFQYVQKNRGIDSEDAYPYVGQEESCMYNPTGKAAKCRGYREIPEGNEKALKRAVARVGPVSVAIDASLTSFQFYSKGVYYDESCNSDNLNHAVLAVGYGIQKGNKHWIIKNSWGENWGNKGYILMARNKNNACGIANLASFPKM
B1 showed a Km [1] of 0.119 µM, a kcat [1] of 23.2 s⁻¹ and a Km [2] of 0.087 µM. It also gave a kcat [2] of 23.2 s⁻¹, a kcat [3] of 3.25 s⁻¹ and a Km [4] of 2 µM. For the same protein, the kcat [4] was 79 s⁻¹, the kcat/Km [5] was 0.19 and the kcat/Km [6] was 0.26. The kcat/Km [7] was 0.54 and the kcat/Km [8] was 0.04.
